The test system of series [1] is HeLa Kyoto. The series is described as follows: melting temperature (median over replicates), in situ; higher = more thermally stable.
The test system of series [2] is HeLa Kyoto. In words: thermal stability score vs G1/S (z-score of summed log2 fold changes over temperatures); higher = more thermally stable than in G1/S.
The test system of series [3] is HeLa Kyoto. The series is described as follows: solubility change mitosis vs G1/S (difference of NP-40 vs SDS log2 ratios) (log2 ratio difference); higher = more soluble in mitosis.
In series [4] the test system is HeLa Kyoto. The series is described as follows: solubility in G1/S (NP-40 vs SDS abundance) (log2 ratio); higher = more soluble. The settings on record: cell cycle stage: G1/S.
Where [5] appears, read: cell cycle stage: early G1 (4.5 h after nocodazole release).

The values that follow come from the supplement of paper PMC5998384.
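Throughout, for melting temperature (median over replicates), in situ: HeLa Kyoto cells synchronized by double thymidine or nocodazole block, proteins quantified by TMT10plex mass spectrometry, three independent biological replicates.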
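Throughout, for solubility change mitosis vs G1/S (difference of NP-40 vs SDS log2 ratios): synchronized HeLa Kyoto cells (double thymidine block for G1/S, nocodazole release for mitosis), protein amounts in NP-40 versus SDS lysates quantified by mass spectrometry, three biological replicates.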
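Throughout, for solubility in G1/S (NP-40 vs SDS abundance): HeLa Kyoto cells arrested at G1/S by double thymidine block, proteins quantified by TMT10plex mass spectrometry in mild NP-40 versus SDS extracts, three biological replicates.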
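Throughout, for thermal stability score vs G1/S (z-score of summed log2 fold changes over temperatures): synchronized HeLa Kyoto cells, proteins quantified by TMT10plex mass spectrometry, three biological replicates, mitosis taken 0.5 h after nocodazole release, G1/S directly after double thymidine block.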

Regarding “MASSSGSKAEFIVGGKYKLVRKIGSGSFGDIYLAINITNGEEVAVKLESQKARHPQLLYESKLYKILQGGVGIPHIRWYGQEKDYNVLVMDLLGPSLEDLFNFCSRRFTMKTVLMLADQMISRIEYVHTKNFIHRDIKPDNFLMGIGRHCNKLFLIDFGLAKKYRDNRTRQHIPYREDKNLTGTARYASINAHLGIEQSRRDDMESLGYVLMYFNRTSLPWQGLKAATKKQKYEKISEKKMSTPVEVLCKGFPAEFAMYLNYCRGLRFEEAPDYMYLRQLFRILFRTLNHQYDYTFDWTMLKQKAAQQAASSSGQGQQAQTPTGKQTDKTKSNMKGF [CSNK1A1]”, the melting temperature in the series with HeLa Kyoto [1] (cell cycle stage: G1/S) was found to be 49.6 °C; in the series on HeLa Kyoto [1] (cell cycle stage: mitosis), 50.2 °C. The thermal stability score with HeLa Kyoto [2] (setting [5]) turned out to be 1.17; in the series on HeLa Kyoto [2] (cell cycle stage: mitosis) it was 1.69. The “solubility change mitosis (log2)” value with HeLa Kyoto [3] is -0.0146. The “solubility in G1/S (log2)” value with HeLa Kyoto [4] was -0.00541.

“MASSSVPPATVSAATAGPGPGFGFASKTKKKHFVQQKVKVFRAADPLVGVFLWGVAHSINELSQVPPPVMLLPDDFKASSKIKVNNHLFHRENLPSHFKFKEYCPQVFRNLRDRFGIDDQDYLVSLTRNPPSESEGSDGRFLISYDRTLVIKEVSSEDIADMHSNLSNYHQYIVKCHGNTLLPQFLGMYRVSVDNEDSYMLVMRNMFSHRLPVHRKYDLKGSLVSREASDKEKVKELPTLKDMDFLNKNQKVYIGEEEKKIFLEKLKRDVEFLVQLKIMDYSLLLGIHDIIRGSEPEEEAPVREDESEVDGDCSLTGPPALVGSYGTSPEGIGGYIHSHRPLGPGEFESFIDVYAIRSAEGAPQKEVYFMGLIDILTQYDAKKKAAHAAKTVKHGAGAEISTVHPEQYAKRFLDFITNIFA [PIP4K2C]”: the melting temperature with HeLa Kyoto [1] (cell cycle stage: G1/S) was found to be 49 °C; with HeLa Kyoto [1] (cell cycle stage: mitosis) it was 48.7 °C. The thermal stability score with HeLa Kyoto [2] (setting [5]) was found to be 0.688; in the series on HeLa Kyoto [2] (cell cycle stage: mitosis) it was 2. Also, the “solubility change mitosis (log2)” value in the series on HeLa Kyoto [3] was -0.07. Besides, in the series with HeLa Kyoto [4], the “solubility in G1/S (log2)” value came to 0.315.

As for “MASTSRLDALPRVTCPNHPDAILVEDYRAGDMICPECGLVVGDRVIDVGSEWRTFSNDKATKDPSRVGDSQNPLLSDGDLSTMIGKGTGAASFDEFGNSKYQNRRTMSSSDRAMMNAFKEITTMADRINLPRNIVDRTNNLFKQVYEQKSLKGRANDAIASACLYIACRQEGVPRTFKEICAVSRISKKEIGRCFKLILKALETSVDLITTGDFMSRFCSNLCLPKQVQMAATHIARKAVELDLVPGRSPISVAAAAIYMASQASAEKRTQKEIGDIAGVADVTIRQSYRLIYPRAPDLFPTDFKFDTPVDKLPQL [GTF2B]”, the melting temperature was determined as 49.7 °C with HeLa Kyoto [1] (cell cycle stage: G1/S) and 49.4 °C in the series with HeLa Kyoto [1] (cell cycle stage: mitosis). Further, the thermal stability score worked out at 2.28 in the series on HeLa Kyoto [2] (setting [5]) and 4 with HeLa Kyoto [2] (cell cycle stage: mitosis). The “solubility change mitosis (log2)” value in the series with HeLa Kyoto [3] was -0.111. In addition, the “solubility in G1/S (log2)” value with HeLa Kyoto [4] was 0.251.

“MASTSYDYCRVPMEDGDKRCKLLLGIGILVLLIIVILGVPLIIFTIKANSEACRDGLRAVMECRNVTHLLQQELTEAQKGFQDVEAQAATCNHTVMALMASLDAEKAQGQKKVEELEGEITTLNHKLQDASAEVERLRRENQVLSVRIADKKYYPSSQDSSSAAAPQLLIVLLGLSALLQ [BST2]”: the results for the melting temperature in the series on HeLa Kyoto [1] (cell cycle stage: G1/S) and in the series with HeLa Kyoto [1] (cell cycle stage: mitosis) were 57.4 °C and 56.4 °C, respectively. Further, the results for the thermal stability score in the series with HeLa Kyoto [2] (setting [5]) and in the series with HeLa Kyoto [2] (cell cycle stage: mitosis) were -4.66 and -5.14, respectively. Further, in the series on HeLa Kyoto [3], the “solubility change mitosis (log2)” value was 0.237. In the series on HeLa Kyoto [4], the “solubility in G1/S (log2)” value is -0.713.

For “MASVGECPAPVPVKDKKLLEVKLGELPSWILMRDFSPSGIFGAFQRGYYRYYNKYINVKKGSISGITMVLACYVLFSYSFSYKHLKHERLRKYH [ATP5J2]”, the melting temperature with HeLa Kyoto [1] (cell cycle stage: G1/S) was found to be 53 °C. The thermal stability score was -0.273 in the series with HeLa Kyoto [2] (setting [5]) and 1.63 in the series on HeLa Kyoto [2] (cell cycle stage: mitosis). Moreover, the “solubility change mitosis (log2)” value in the series with HeLa Kyoto [3] is -0.104. The “solubility in G1/S (log2)” value in the series with HeLa Kyoto [4] was 0.148.

With “MASVSALTEELDSITSELHAVEIQIQELTERQQELIQKKKVLTKKIKQCLEDSDAGASNEYDSSPAAWNKEDFPWSGKVKDILQNVFKLEKFRPLQLETINVTMAGKEVFLVMPTGGGKSLCYQLPALCSDGFTLVICPLISLMEDQLMVLKQLGISATMLNASSSKEHVKWVHAEMVNKNSELKLIYVTPEKIAKSKMFMSRLEKAYEARRFTRIAVDEVHCCSQWGHDFRPDYKALGILKRQFPNASLIGLTATATNHVLTDAQKILCIEKCFTFTASFNRPNLYYEVRQKPSNTEDFIEDIVKLINGRYKGQSGIIYCFSQKDSEQVTVSLQNLGIHAGAYHANLEPEDKTTVHRKWSANEIQVVVATVAFGMGIDKPDVRFVIHHSMSKSMENYYQESGRAGRDDMKADCILYYGFGDIFRISSMVVMENVGQQKLYEMVSYCQNISKCRRVLMAQHFDEVWNSEACNKMCDNCCKDSAFERKNITEYCRDLIKILKQAEELNEKLTPLKLIDSWMGKGAAKLRVAGVVAPTLPREDLEKIIAHFLIQQYLKEDYSFTAYATISYLKIGPKANLLNNEAHAITMQVTKSTQNSFRAESSQTCHSEQGDKKMEEKNSGNFQKKAANMLQQSGSKNTGAKKRKIDDA [RECQL]”, the values for the melting temperature in the series on HeLa Kyoto [1] (cell cycle stage: G1/S) and with HeLa Kyoto [1] (cell cycle stage: mitosis) were 54 °C and 53.4 °C, respectively. Moreover, the thermal stability score is -1.7 with HeLa Kyoto [2] (setting [5]) and -4.39 with HeLa Kyoto [2] (cell cycle stage: mitosis). The “solubility change mitosis (log2)” value with HeLa Kyoto [3] is -0.174. For the same sequence, in the series with HeLa Kyoto [4], the “solubility in G1/S (log2)” value is 0.0561.

With “MASVTRAVFGELPSGGGTVEKFQLQSDLLRVDIISWGCTITALEVKDRQGRASDVVLGFAELEGYLQKQPYFGAVIGRVANRIAKGTFKVDGKEYHLAINKEPNSLHGGVRGFDKVLWTPRVLSNGVQFSRISPDGEEGYPGELKVWVTYTLDGGELIVNYRAQASQATPVNLTNHSYFNLAGQASPNINDHEVTIEADTYLPVDETLIPTGEVAPVQGTAFDLRKPVELGKHLQDFHLNGFDHNFCLKGSKEKHFCARVHHAASGRVLEVYTTQPGVQFYTGNFLDGTLKGKNGAVYPKHSGFCLETQNWPDAVNQPRFPPVLLRPGEEYDHTTWFKFSVA [GALM]”, the melting temperature in the series with HeLa Kyoto [1] (cell cycle stage: mitosis) amounted to 51.4 °C. The results for the thermal stability score in the series on HeLa Kyoto [2] (setting [5]) and in the series on HeLa Kyoto [2] (cell cycle stage: mitosis) were -0.647 and -0.863, respectively. The “solubility change mitosis (log2)” value in the series with HeLa Kyoto [3] is -0.0325. The “solubility in G1/S (log2)” value with HeLa Kyoto [4] came out at 0.236.
